The values below come from paper PMC11783328 (Science immunology, 2024).

The target in this assay is T1, BG505 SOSIP.v4.1-GT1.1 (HIV-1 (isolate BG505), UniProt Q2N0S6).
T1 construct: copies: 3 + 3
Briefly: SPR; Biacore 3000; His-tagged GT1 and GT1.1 trimers captured in parallel flow cells; IgG injected from 1 uM in two- or four-fold dilutions; association 300 s, dissociation 600 s, 50 uL/min; bivalent model (first- and second-point interaction; kon2 and KD2 converted from RU units). As to conditions: both partners purified. (SPR reads the build-up and loss of mass on a sensor chip optically.)

As usually defined, the stoichiometry N is the number of molecules, sites or subunits per partner or assembly.

B1: gl-3BNC60 (antibody, V domains shown)
VH: not shown
VL: DIQMTQSPSSLSASVGDRVTITCQASQDISNYLNWYQQKPGKAPKLLIYDASNLETGVPSRFSGSGSGTDFTFTISSLQPEDIATYYCQQYEFIGPGTKVDIK
notes: also called 3BNC60 germline; inferred germline precursor of 3BNC60
Consider B1, for which the “stoichiometry N” value is 1.1 paratopes per trimer.
